# Measured values published in patent publication US20250025552A1 (published 2025).
# Biological target: the molecule itself
# Assay: gel filtration (Superdex 200) of His-caspase 11 after incubation with oxPAPC; self-association
# Protocol: To measure the ability of oxPAPC to oligomerize caspase-11, monomer or oligomer fractions of His-caspase 11 were incubated with oxPAPC for 2 hours on ice, and then analyzed with Superdex 200 (10/300).
protein,measurement,value
"His-caspase 11 (full length mouse caspase 11 with a TEV cleavable N-terminal 6xHis tag) (enzyme, UniProt P70343 1-373, looked up, Monomer or oligomer fractions from size exclusion chromatography were incubated with oxPAPC and run on Superdex 200; not shown: TEV cleavable N-terminal 6xHis tag from the pFastBac HT A vector) MAENKHPDKPLKVLEQLGKEVLTEYLEKLVQSNVLKLKEEDKQKFNNAERSDKRWVFVDAMKKKHSKVGEMLLQTFFSVDPGSHHGEANLEMEEPEESLNTLKLCSPEEFTRLCREKTQEIYPIKEANGRTRKALIICNTEFKHLSLRYGANFDIIGMKGLLEDLGYDVVVKEELTAEGMESEMKDFAALSEHQTSDSTFLVLMSHGTLHGICGTMHSEKTPDVLQYDTIYQIFNNCHCPGLRDKPKVIIVQACRGGNSGEMWIRESSKPQLCRGVDLPRNMEADAVKLSHVEKDFIAFYSTTPHHLSYRDKTGGSYFITRLISCFRKHACSCHLFDIFLKVQQSFEKASIHSQMPTIDRATLTRYFYLFPGN",binding result,binds
